Assay: yeast display, Sf9 membrane polyspecificity reagent, FACS + sequencing; frameworks hold sequencing errors
In short: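 Genes from sorted yeast were amplified by colony PCR, read by MiSeq 2 × 250 sequencing and filtered on CDR length. These cells carried a synthetic nanobody library in Saccharomyces cerevisiae BJ5465 and were sorted by FACS into low and high (top ~1%) gates on anti-HA and streptavidin fluorescence. Polyreactivity is labelled according to the gate of origin.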

Sequence | polyreactivity (PSR sort gate)
QDQLVESGGGLVQAGGSLRLSCAASGSIFTSYAMGWYRQAPGKERELVAAITGGDSTNYADSVKGRFTISRDNAKNTVYLQMNSLKPEDTAVYYCNAADPNYFDRDTHYYWGQGTQVTVSS | low polyreactivity
QVKLVESGGGIVQAGGSLRLTCAASGSTVRLYAMGCYRQAPGKERELVAAISTRGSSTYYADSVKGRFTISRDNAKNTVYLQMNSLKPEDTAVFYCAADAYFIYSRYWYDYWGQGTQVTVSS | high polyreactivity
QVQLVESGGGLVQAGGSLRLSCAASGLTFAGNAMGWYRQAPGKEREFVATITWSDGSTRYADSVKGRFTISRDNAKNTVYLQMNSLKPEDTAVYYCNTQYPDYFYEFNYWGQGTQVTVSS | low polyreactivity
QDQLVESVGGLVQAGGSLRLSCAASASTFGSNAMGWYRQAPGKDREFVAAISRRGGSTYYADSVKGRFTFSRDNAKNTVYLQMNSLKPEDTAVYYCAADYISLREEHYWGHGTQVTVSS | high polyreactivity
QVQLVESGGGLVQAGGSLRLSCAASGFTLYGYTMGWYRQAPGKERELVAAISGSGGRTYYADSVKGRFTISRDNAKNTVYLQMNSLKPEDTAVYYCAARHHPEYYYWGQGTQVTVSS | high polyreactivity
QVQIVESGGGLVQEGGSLRISCAASGFTFTANAMGWYRQAPGKERELVAAITRNGGRTYYADSVKGRFTISRDNAKNTVYFQMNSLKPEDTAVYYCAKPTSQRIHDDYDYWGQGTQVTVSS | high polyreactivity
QVQLVESGGGLVQAGGSLRLSCAASGSIFYAYAMGWYRQAPGKERELVAAISSDGSTYYADSVKGRFTISRDNAKNTVYLQMTSLKPEDTAVYYCAASVLAPNAVSGSDYWGQGTQVTVSS | low polyreactivity
QVQLVESGGGLVQAGGSLRLSCAASGSTFWRYAMGWYRQAPGKERELVAAITRRGSSTYYADSVKGRFTISRDNAKNTVVLQMNSLKPEDTAVYYCAAPGYVRTGVTYGGYYWGQGTQVTVSS | high polyreactivity
QVQLVESGGGLVQAGGSLRLSCAASGSIFGYYAMGWYRQAPGKERELVAVITSSGGGTYYADSVKGRFTISRDNAKNTVYLQMNSLKPEDTAVYYCAKLGTRRYDSWGQGTQVTVSS | high polyreactivity
QVQLVESGGGLVQAGGSLSLSCAASGSIFVRYAMGWSRHAPWKERELVAAISVRGGRTYYAYSVKGRFTISRDNAKNTVYLQMNRLKPEATAVYYCAAQLYYYYSYVPPGGYWGQGTQVTVSA | high polyreactivity
QVQLVESGGGLVQAGGSLRLSCAASGSTFTSNTRWYRQAPGKERELVAAISNRGGGTYYADSVKGRFTISRDNAKNTVYLQMNSLKPEDTAVYYCNAAGYARKTAYYYWGQGTQVTVSS | high polyreactivity
QVQLQESGGGLVQAGGSQRLSCAASGYIFYFQYMGWYRKAPGKEREFVAAISDGANTNYADSVKGRFTISRDNAKNTEYLQLNSLKPEDTAVYYCAVYADENYYYIYWGQGTQVNVSS | low polyreactivity
QVQLVESGGGLVQAGGSLRLSCAASGRIFGRNAMGWYRQAPGKERELVAAISSSGGRTYYADSVKGRFSISRDNAKNTVYLQMMSLKPEDTAVYYCAAVGSLYYYRYDYWGQGTQVTVSS | high polyreactivity
QVHLVESGGGIVQAGGSLRLSCAASGRTFVVYAMGWYRPATGKQLELVAAIRRIDGRTYYADSVKGRFTISRDNAKNTVYLQMNCLKPEDTAVYYCAADWVGATGYLYGYWGQGNQVTVSS | low polyreactivity
QVQLVESGGGLVQAGGSLRLSCAASGFTCPSYNMRWYRQAPGKERELVAAISRSDGNTYYADSVKGRFTISRDNAKNTVYLQMNSLKPEDTEVYYCAAEYEAYAYEYWGQGTQVTVSS | high polyreactivity
QVQLVESGGGLVQAGGSLRLSCAASGYTFRYNAMGWYRQAPGKERELVATISRGGNTNYADSVKGRFTISRDNAKNPVYLQMISLKAEDTAVYYCAKVWRTFPYYSWGQGTQVTVSS | high polyreactivity

Sequence | polyreactivity (PSR sort gate)
QVQLVESGGGLVQAGGSLRLSCAASGFTFYYYAMGWYRQAPGKERELVAAITSSGDSTFYADSVKGRFTISRDNAKNTVSLQMNSLKPEDTAVYYCAADRFQGRDDYWGQGTQGTVSS | high polyreactivity
QVQLVESGGGLVQAGGSLRLSCAASGITFYYTMGWYRQAPGKERELVATISYDGTSTYYADSVKGRFTISRHNEKNTVYLHMNSLKPEDTAVYYSSAYGTVVTLNDYWGQGTQVTVSS | low polyreactivity
QVQLVESGGGLVQAGGSLRLSCAASGSIFKRNVMGWYRQAPGKERELVAAITWSGASTYYADSVKGRFTISRDNAKITVYLQMNSLKPEDTAVYYCAARGPSRRRDGSDYWGQGTQVTVSS | high polyreactivity
QVQLVESGGGLVQAGGSLRLSCAASGITFLYYAMGWYRQAPGKERELVAAISGGGASTYYADSVKGRFTISRDNAKNTVYLQKNSLKPEDTAVYYCAAGYRDFFRARFGYWGQGTQVTVSS | high polyreactivity
QVQLVESGGGLVQAGGSLRLSCAASGRTFHINAMGWYRQAPGKERELVAGINSGGSTNYADSVKGRFTISRDNAKNTVYLQMNSLKPEDTAVYYCNAVVKLKYLYYYVEHYYWGQGTQVTVSS | low polyreactivity
QVQLVESGGGLVQAGGSLRLSCAASGFTFRYYAMGWYRQAPGKERELVASISRSGSTNYADSVKGRFTISRDNAKNTVYLQMNSLKPEDTAVYYCAAQLYSRGGYWGQGTQVTVSS | high polyreactivity
QVHLVESGGGLVQAGGSLRLSCAASGTTFGVYALGWYRQAPGKERELVAVITSRGGSTYYADSVKGRFTISRDNAKNTVYLQMNSLKPEDSAVYYCNTSTSRVPGNGEYWGQGTQVTVSS | high polyreactivity
QVQLVESGGGLVQAGGSLRLSCAASGITFTVYAMGWYRQAPGKERELVAAITSTGSTNYADSVKGRSTISRDNAKNTVYLQMNSLKPEDTAVYYCAADRQITVYAYDYWGQGTQVTVSS | low polyreactivity
QDQLVESGGGLVQAGCSLRLSCAASGSTFHLNAMGWYRQAPGKERELVAAITWSGGSTYYADSVKGRFTISRDNAKNTVYLQMNSLKPEDTAVYYCNAGLGKFPVKGGRRYRLDYWGQGTQVTVSS | low polyreactivity
QVQLVESGGGLVQAGGSLRLSCAASGRIFYKNAMGWYRPEPGKEREVVAAISSSGTRTYYADSVKGRFTISRENAKNTVSLQMNSLKPEDTAVYYCAAALGWYSAFGYWGQGTQVTVSS | high polyreactivity
QVQLVESGGCLVKAGGSLRLSCAASGSTFHYYPMGWYRQAPGKERELFAAISTSGVRTYYADSVKGRFTISRDNAKNTVYLQMNRLKPEDTAVYYCAARRGYVKGKTYDYWGQGSQVTVSS | high polyreactivity
QVQLVESGGGLVQAGGSLRLSCAASGFTFPFYAMGWYRPAHRKERELVAAITASGGSTYYADSVKGRFTISRDNAKYTVYLQMNSLKPEDTAVYYCATSIYRGYYYWGQGTQVTVSS | high polyreactivity
QVQLVESGGGLVQAGGSLRLSCAASGFTFAPNPMGWYRPAPGKEWELVAAITRSGGSTYYADSVKGRFTISRDNAKNTVYLQMYSLKPEDTAVYYCNAGRRGSGYVYWGQGTQVTVSS | high polyreactivity
QVQLVESGGGLVQAGGSLRLSCAASGFTFGWYAMGWYRQAPGKERELVADITYNDASTYYADSVKGRFTISRDNAKNTVYLQMNSLKPEDTAVYYCNAVHRRYLVTHPYDYWGQGTQVTVSS | low polyreactivity
QVQLVESGGGVVQARGSLRLSCAASGSTFDVNAMGWYRQAPWKDRELVAAISWNSGTTYYADSVKGRFTISRDNAKNSVYLQMNSLKPEDTAVYYCAASYGTGRRSKYGYWGQGTQVTVSS | high polyreactivity
QVQLVESGGCLVQAGGSLSLSCAASGSIFGWYVMGWYRQAPGKERELGAAISSVGSTYYADSVKGRFTISRDNAKNTVYLQMNSLKPEDTAVYYCAKLRYPYLFSDDSEYWGQGTQVTVSS | low polyreactivity

Source: the nanobody polyreactivity screen of Harvey et al. (2022)
